Abundance fitness data for 39 variants are collected here from the Human Domainome abundance scans (Beltran et al. 2025).

± gives the uncertainty stated by the source.

The chains are these.
B1: Pituitary-specific positive transcription factor 1, residues 130 to 198; numbered along this chain, P28069 (parent)
chain: RELEKFANEFKVRRIKLGYTQTNVGEALAAVHGSEFSQTTICRFENLQLSFKNACKLKAILSKWLEEAE

The variants in this series derive from B1. Nature of the series: abundance fitness (aPCA) (normalised: wild type 0, dead -1); higher = more abundant; growth selection in yeast, the domain comes from the species named. The following applies: Homo sapiens.
Take RELEKFANEFKVRREKLGYTQTNVGEALAAVHGSEFSQTTICRFENLQLSFKNACKLKAILSKWLEEAE: the abundance fitness is -0.014 ± 0.11.

Turning to RELEKFANEFKVRRRKLGYTQTNVGEALAAVHGSEFSQTTICRFENLQLSFKNACKLKAILSKWLEEAE, the abundance fitness is -0.083 ± 0.055.

With RELEKFANEFKVRRTKLGYTQTNVGEALAAVHGSEFSQTTICRFENLQLSFKNACKLKAILSKWLEEAE, the abundance fitness was -0.13 ± 0.073.

RELEKFANEFKVRRDKLGYTQTNVGEALAAVHGSEFSQTTICRFENLQLSFKNACKLKAILSKWLEEAE: the abundance fitness was -0.89 ± 0.26.

With RELEKFANEFKVRRLKLGYTQTNVGEALAAVHGSEFSQTTICRFENLQLSFKNACKLKAILSKWLEEAE, the abundance fitness is -0.196 ± 0.045.

As for RELEKFANEFKVRRQKLGYTQTNVGEALAAVHGSEFSQTTICRFENLQLSFKNACKLKAILSKWLEEAE, the abundance fitness stood at 0.042 ± 0.063.

Turning to RELEKFANEFKVRRCKLGYTQTNVGEALAAVHGSEFSQTTICRFENLQLSFKNACKLKAILSKWLEEAE, the abundance fitness was -0.327 ± 0.094.

As for RELEKFANEFKVRRSKLGYTQTNVGEALAAVHGSEFSQTTICRFENLQLSFKNACKLKAILSKWLEEAE, the abundance fitness is -0.272 ± 0.055.

Consider RELEKFANEFKVRRKKLGYTQTNVGEALAAVHGSEFSQTTICRFENLQLSFKNACKLKAILSKWLEEAE, for which the abundance fitness is -0.054 ± 0.073.

RELEKFANEFKVRRHKLGYTQTNVGEALAAVHGSEFSQTTICRFENLQLSFKNACKLKAILSKWLEEAE: the abundance fitness is -0.393 ± 0.093.

For the variant RELEKFANEFKVRRVKLGYTQTNVGEALAAVHGSEFSQTTICRFENLQLSFKNACKLKAILSKWLEEAE, the abundance fitness is -0.219 ± 0.077.

Turning to RELEKFANEFKVRRAKLGYTQTNVGEALAAVHGSEFSQTTICRFENLQLSFKNACKLKAILSKWLEEAE, the abundance fitness is -0.173 ± 0.085.

Turning to RELEKFANEFKVRRPKLGYTQTNVGEALAAVHGSEFSQTTICRFENLQLSFKNACKLKAILSKWLEEAE, the abundance fitness is -1.03 ± 0.21.

In the case of RELEKFANEFKVRRNKLGYTQTNVGEALAAVHGSEFSQTTICRFENLQLSFKNACKLKAILSKWLEEAE, the abundance fitness was -0.546 ± 0.31.

Consider RELEKFANEFKVRRGKLGYTQTNVGEALAAVHGSEFSQTTICRFENLQLSFKNACKLKAILSKWLEEAE, for which the abundance fitness is -0.404 ± 0.087.

Regarding RELEKFANEFKVRRMKLGYTQTNVGEALAAVHGSEFSQTTICRFENLQLSFKNACKLKAILSKWLEEAE, the abundance fitness is 0.014 ± 0.058.

Consider RELEKFANEFKVRRYKLGYTQTNVGEALAAVHGSEFSQTTICRFENLQLSFKNACKLKAILSKWLEEAE, for which the abundance fitness was -0.761 ± 0.16.

Consider RELEKFANEFKVRRIKLYYTQTNVGEALAAVHGSEFSQTTICRFENLQLSFKNACKLKAILSKWLEEAE, for which the abundance fitness is -0.825 ± 0.28.

With RELEKFANEFKVRRIKLWYTQTNVGEALAAVHGSEFSQTTICRFENLQLSFKNACKLKAILSKWLEEAE, the abundance fitness is -0.83 ± 0.23.

RELEKFANEFKVRRIKLDYTQTNVGEALAAVHGSEFSQTTICRFENLQLSFKNACKLKAILSKWLEEAE: the abundance fitness was -0.556 ± 0.15.

Consider RELEKFANEFKVRRIKLNYTQTNVGEALAAVHGSEFSQTTICRFENLQLSFKNACKLKAILSKWLEEAE, for which the abundance fitness was -0.969 ± 0.37.

RELEKFANEFKVRRIKLIYTQTNVGEALAAVHGSEFSQTTICRFENLQLSFKNACKLKAILSKWLEEAE: the abundance fitness is -0.665 ± 0.27.

With RELEKFANEFKVRRIKLCYTQTNVGEALAAVHGSEFSQTTICRFENLQLSFKNACKLKAILSKWLEEAE, the abundance fitness is -0.688 ± 0.23.

As for RELEKFANEFKVRRIKLSYTQTNVGEALAAVHGSEFSQTTICRFENLQLSFKNACKLKAILSKWLEEAE, the abundance fitness is -0.838 ± 0.16.

As to RELEKFANEFKVRRIKLRYTQTNVGEALAAVHGSEFSQTTICRFENLQLSFKNACKLKAILSKWLEEAE, the abundance fitness was -0.84 ± 0.11.

With RELEKFANEFKVRRIKLPYTQTNVGEALAAVHGSEFSQTTICRFENLQLSFKNACKLKAILSKWLEEAE, the abundance fitness was -0.608 ± 0.28.

In the case of RELEKFANEFKVRRIKLFYTQTNVGEALAAVHGSEFSQTTICRFENLQLSFKNACKLKAILSKWLEEAE, the abundance fitness is -0.681 ± 0.21.

As for RELEKFANEFKVRRIKLHYTQTNVGEALAAVHGSEFSQTTICRFENLQLSFKNACKLKAILSKWLEEAE, the abundance fitness was -0.742 ± 0.28.

As for RELEKFANEFKVRRIKLVYTQTNVGEALAAVHGSEFSQTTICRFENLQLSFKNACKLKAILSKWLEEAE, the abundance fitness is -0.912 ± 0.16.

Take RELEKFANEFKVRRIKLLYTQTNVGEALAAVHGSEFSQTTICRFENLQLSFKNACKLKAILSKWLEEAE: the abundance fitness is -0.62 ± 0.1.

As to RELEKFANEFKVRRIKIGYTQTNVGEALAAVHGSEFSQTTICRFENLQLSFKNACKLKAILSKWLEEAE, the abundance fitness was -0.709 ± 0.5.

As for RELEKFANEFKVRRIKTGYTQTNVGEALAAVHGSEFSQTTICRFENLQLSFKNACKLKAILSKWLEEAE, the abundance fitness is -0.941 ± 0.25.

On to RELEKFANEFKVRRIKWGYTQTNVGEALAAVHGSEFSQTTICRFENLQLSFKNACKLKAILSKWLEEAE, for which the abundance fitness was -0.638 ± 0.11.

For RELEKFANEFKVRRIKYGYTQTNVGEALAAVHGSEFSQTTICRFENLQLSFKNACKLKAILSKWLEEAE, the abundance fitness is -0.858 ± 0.47.

For the variant RELEKFANEFKVRRIKQGYTQTNVGEALAAVHGSEFSQTTICRFENLQLSFKNACKLKAILSKWLEEAE, the abundance fitness is -0.821 ± 0.26.

Take RELEKFANEFKVRRIKKGYTQTNVGEALAAVHGSEFSQTTICRFENLQLSFKNACKLKAILSKWLEEAE: the abundance fitness was -0.804 ± 0.26.

With RELEKFANEFKVRRIKGGYTQTNVGEALAAVHGSEFSQTTICRFENLQLSFKNACKLKAILSKWLEEAE, the abundance fitness was -0.889 ± 0.16.

In the case of RELEKFANEFKVRRIKHGYTQTNVGEALAAVHGSEFSQTTICRFENLQLSFKNACKLKAILSKWLEEAE, the abundance fitness is -0.497 ± 0.29.

Take RELEKFANEFKVRRIKAGYTQTNVGEALAAVHGSEFSQTTICRFENLQLSFKNACKLKAILSKWLEEAE: the abundance fitness is -0.401 ± 0.091.
